For experiment [1], the target named is T1, human FcγRIIb extracellular domain, C-terminal His-tag (human, UniProt P31994 43-217).
T1 construct: Soluble extracellular domain expressed in FreeStyle 293 cells; also called FcgRIIb; not shown: His-tag added to the C-terminus
T1 sequence: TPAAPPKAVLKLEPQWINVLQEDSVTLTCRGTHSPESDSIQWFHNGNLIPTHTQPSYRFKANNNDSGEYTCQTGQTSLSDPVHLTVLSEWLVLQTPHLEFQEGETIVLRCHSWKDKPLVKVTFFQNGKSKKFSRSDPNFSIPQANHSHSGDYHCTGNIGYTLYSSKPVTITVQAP
The experiment can be described thus: SPR (BIACORE), antibody captured by mouse anti-human IgG kappa light chain, FcgR extracellular domain as analyte, 25 C. The protocol:
(§1) The kinetic analysis of interactions between these antibodies and FcγR was carried out using BIACORE® T200 or BIACORE® 4000 (GE Healthcare). HBS-EP+ (GE Healthcare) was used as the running buffer, and the measurement temperature was set to 25° C. A chip produced by immobilizing Protein A. Protein A/G or mouse anti-human IgG kappa light chain (BD Biosciences) onto a Series S Sensor Chip CM4 or CM5 (GE Healthcare) by the amine-coupling method was used. […] After the measurement, the antibody captured on the chip was washed off by allowing reaction with 10 mM glycine-HCl, pH1.5 and 25 mM NaOH so that the chip was regenerated and used repeatedly. The sensorgrams obtained as measurement results were analyzed by the 1:1 Langmuir binding model using the BIACORE® Evaluation Software to calculate the binding rate constant ka (L/mol/s) and dissociation rate constant kd (l/s), and the dissociation constant KD (mol/L) was calculated from these values. […] Regarding such interactions, KD values were calculated using the following 1:1 binding model described in BIACORE® T100 Software Handbook BR1006-48 Edition AE.
(§2) Furthermore, the substitutions used in Example 29 for improving antibody half-life and reducing binding to rheumatoid factor were introduced into human FcγRIIb-enhanced Fc variants and their affinity against human FcγRs were analyzed (Table 29). In this SPR analysis, all the data were obtained using mouse anti-human IgG kappa light chain for capturing the antibodies of interest.
In general terms: Surface plasmon resonance follows binding to a sensor surface in real time, without labels.

For experiment [2], the target named is T2, human FcγRIIIaV extracellular domain, C-terminal His-tag (human, UniProt P08637 17-208).
T2 construct: Soluble extracellular domain expressed in FreeStyle 293 cells; also called FcgRIIIaV; not shown: His-tag added to the C-terminus
The description is as above. The protocol: as §1, §2

The target in experiment [3] is T3, human FcγRIIaR extracellular domain, C-terminal His-tag (human, UniProt P12318 34-217).
T3 construct: Soluble extracellular domain expressed in FreeStyle 293 cells; also called FcgRIIaR; human FcγRIIa (type R); not shown: His-tag added to the C-terminus
T3 chain: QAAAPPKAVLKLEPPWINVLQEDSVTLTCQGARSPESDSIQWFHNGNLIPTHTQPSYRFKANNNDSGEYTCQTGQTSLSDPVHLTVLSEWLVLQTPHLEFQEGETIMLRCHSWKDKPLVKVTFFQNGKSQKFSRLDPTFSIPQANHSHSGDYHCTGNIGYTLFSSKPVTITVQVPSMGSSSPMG
The description is as above. The protocol: as §1, §2

The target in experiment [4] is T4, human FcγRIIaH extracellular domain, C-terminal His-tag (human, UniProt P12318 34-217).
T4 construct: Soluble extracellular domain expressed in FreeStyle 293 cells; also called FcgRIIaH; human FcγRIIa (type H); not shown: His-tag added to the C-terminus
T4 sequence: T3 chain with R134H
The experiment is described as above. The protocol: as §1, §2

The target of experiment [5] is T1, human FcγRIIb extracellular domain, …. The experiment can be described thus: SPR (BIACORE); KD of SG1 divided by KD of the variant. The protocol:
as §1, §2

Experiment [6] has as its target T2, human FcγRIIIaV extracellular domain, …. Described as above. The protocol:
as §1, §2

Experiment [7] deals with T3, human FcγRIIaR extracellular domain, …. The description is as above. The protocol: as §1, §2
For experiment [8], the target named is T4, human FcγRIIaH extracellular domain, …. The description is as above. The protocol:
as §1, §2

The record followed here is patent US20200317768A1 (published 2020).

Positions count from the first letter of the chain named.

T2 sequence (P08637 17-208 F176V): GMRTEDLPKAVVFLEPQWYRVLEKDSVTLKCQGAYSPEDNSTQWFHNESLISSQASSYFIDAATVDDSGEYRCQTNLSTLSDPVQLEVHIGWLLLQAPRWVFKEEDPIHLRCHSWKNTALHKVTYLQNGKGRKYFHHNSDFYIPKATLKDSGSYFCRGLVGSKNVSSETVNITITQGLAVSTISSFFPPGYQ

B1: MS103240H795-TT71/M103202L1045-SK1 (antibody)
heavy: QVQLVESGGGLVQPGGSLRLSCAVSGIDLSHDDISWVRQAPGKGLEWVSIISYAGSTYYASWAKGRLTISKDTSKNQVVLTMTNMDPVDTATYYCARGVPAYSHGGDLWGQGTLVTVSSASTKGPSVFPLAPSSKSTSGGTAALGCLVKDYFPEPVTVSWNSGALTSGVHTFPAVLQSSGLYSLSSVVTVPSSSLGTQTYICNVNHKPSNTKVDKKVEPKSCDKTHTCPPCPAPELLGGDSVFLFPPKPKDVLMISRTPEVTCVVIDVSHEDPEVKFNWYVDGVEVHNAKTKPREEQYNSTYRVVSVLPVLHRDWLNGKEYKCKVSNKALPKPIEKTISKAKGQRREPQVYTLPPSREEMTKNQVSLTCLVKGFYPSDIAVEWESNGQPENNYKTTPPVLDSDGSFFLYSKLTVDKSRWQQGNVFSCSVLHEALHAHTTRKELSLSP
light: DIVMTQSPATLSLSPGERATLSCTTSQSVYHENWLSWFQQKPGQPPKLLIYWASTLAYGVPSRFSGSGSGTDFTLTISSLQPEDAATYYCAGGYGGGRYAFGQGTKVEIKRTVAAPSVFIFPPSDEQLKSGTASVVCLLNNFYPREAKVQWKVDNALQSGNSQESVTEQDSKDSTYSLSSTLTLSKADYEKHKVYACEVTHQGLSSPVTKSFNRGEC
The term Kd denotes the free concentration of one partner at which half of the binding sites on the other are occupied at equilibrium, for simple one-to-one binding. On to B1, for which the Kd in experiment [1] amounted to 0.42 µM; in experiment [2], 400 µM; in experiment [3], 27 µM; in experiment [4], 96 µM. The “KD fold for humanFcgRs (SG1 = 1)” value in experiment [5] amounted to 11.2 fold; in experiment [6], 0.002 fold; in experiment [7], 0.04 fold; in experiment [8], 0.01 fold.

B2: MS103240H795-TT91/M103202L1045-SK1 (antibody)
heavy: B1 heavy with L236Y
light: B1 light
Turning to B2, the Kd in experiment [1] worked out at 0.32 µM; in experiment [2], 450 µM; in experiment [3], 30 µM; in experiment [4] it was 46 µM. The “KD fold for humanFcgRs (SG1 = 1)” value in experiment [5] was determined as 14.7 fold; in experiment [6] it was 0.002 fold; in experiment [7] it was 0.04 fold; in experiment [8], 0.021 fold.

B3: MS103240H795-TT93/M103202L1045-SK1 (antibody)
heavy: B1 heavy with L236Y, R345P, D415K
light: B1 light
notes: copies: 2 + 2
As for B3, the Kd in experiment [1] turned out to be 0.31 µM; in experiment [2], 470 µM; in experiment [3], 24 µM; in experiment [4], 52 µM. Also, the “KD fold for humanFcgRs (SG1 = 1)” value in experiment [5] is 15.2 fold; in experiment [6], 0.002 fold; in experiment [7], 0.05 fold; in experiment [8], 0.019 fold.

B4: MS103240H795-TT72/M103202L1045-SK1 (antibody)
heavy: B1 heavy with R345P, D415K, L430M, T438Y
light: B1 light
notes: copies: 2 + 2
Consider B4, for which the Kd in experiment [1] was determined as 0.4 µM; in experiment [2] it was 500 µM; in experiment [3], 24 µM; in experiment [4] it was 79 µM. The “KD fold for humanFcgRs (SG1 = 1)” value in experiment [5] is 11.8 fold; in experiment [6], 0.001 fold; in experiment [7] it was 0.05 fold; in experiment [8] it was 0.012 fold.

B5: MS103240H795-TT92/M103202L1045-SK1 (antibody)
heavy: B1 heavy with L236Y, R345P, D415K, L430M, T438Y
light: B1 light
notes: copies: 2 + 2
For B5, the Kd stood at 0.28 µM in experiment [1], 490 µM in experiment [2], 20 µM in experiment [3] and 40 µM in experiment [4]. In addition, the “KD fold for humanFcgRs (SG1 = 1)” value in experiment [5] came to 16.8 fold; in experiment [6] it was 0.001 fold; in experiment [7], 0.06 fold; in experiment [8] it was 0.024 fold.

B6: MS103240H795-TT73/M103202L1045-SK1 (antibody)
heavy: B1 heavy with R345P, D415K
light: B1 light
notes: copies: 2 + 2
With B6, the Kd is 0.42 µM in experiment [1], 550 µM in experiment [2], 19 µM in experiment [3] and 74 µM in experiment [4]. For the same molecule, the “KD fold for humanFcgRs (SG1 = 1)” value amounted to 11.2 fold in experiment [5], 0.001 fold in experiment [6], 0.06 fold in experiment [7] and 0.013 fold in experiment [8].

B7: MS103240H795-TT90/M103202L1045-SK1 (antibody)
heavy: B1 heavy with L236Y, L430M, T438Y
light: B1 light
Regarding B7, the Kd in experiment [1] turned out to be 0.3 µM; in experiment [2], 360 µM; in experiment [3], 25 µM; in experiment [4], 29 µM. Also, the “KD fold for humanFcgRs (SG1 = 1)” value in experiment [5] was found to be 15.7 fold; in experiment [6], 0.002 fold; in experiment [7] it was 0.05 fold; in experiment [8], 0.033 fold.
